Data reported in patent WO2022210830A1 (dated 2022).

Experiments:
Assay in all cases: cell-based or functional assay
[1] = biological target: Omicron strain spike protein on pseudotype virus (SARS-CoV-2, UniProt P0DTC2 14-1273)
[2] = biological target: Kappa strain spike protein on pseudotype virus (SARS-CoV-2, UniProt P0DTC2 14-1273)
[3] = biological target: Delta strain spike protein on pseudotype virus (SARS-CoV-2, UniProt P0DTC2 14-1273)

B1: 0210-28K (antibody, V domains shown)
VH: QMQLVQSGPEVKKPGTSVKVSCKASGFTFSISAVQWVRQARGQRLEWIGWIVVGSGNTNYAQKFQERVTITRDMSTSTAYMELSSLRFEDTAVYYCAAPYCGGDCSDGFDIWGQGTMVTVSS
VL: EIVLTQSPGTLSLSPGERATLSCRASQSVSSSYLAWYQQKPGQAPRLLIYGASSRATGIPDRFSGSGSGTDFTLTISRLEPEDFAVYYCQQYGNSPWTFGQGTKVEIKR
- IC50, inhibition of pseudotype virus infection (luciferase) [1]: ~200 pM
- IC50, inhibition of pseudotype virus infection, 1st experiment [2]: 0.0108 µg/mL
- IC50, inhibition of pseudotype virus infection, 2nd experiment [2]: 0.0203 µg/mL
- IC50, inhibition of pseudotype virus infection, 1st experiment [3]: < 0.0075 µg/mL
- IC50, inhibition of pseudotype virus infection, 2nd experiment [3]: 0.0121 µg/mL
